Measurements reported in patent US20050032194.

Columns and labels:
[1] = molecular target: T1, RsaA(485/IHNVG20), full-length RsaA hybrid protein carrying the 20 amino acid IHNV-G peptide at amino acid 485
T1 chain: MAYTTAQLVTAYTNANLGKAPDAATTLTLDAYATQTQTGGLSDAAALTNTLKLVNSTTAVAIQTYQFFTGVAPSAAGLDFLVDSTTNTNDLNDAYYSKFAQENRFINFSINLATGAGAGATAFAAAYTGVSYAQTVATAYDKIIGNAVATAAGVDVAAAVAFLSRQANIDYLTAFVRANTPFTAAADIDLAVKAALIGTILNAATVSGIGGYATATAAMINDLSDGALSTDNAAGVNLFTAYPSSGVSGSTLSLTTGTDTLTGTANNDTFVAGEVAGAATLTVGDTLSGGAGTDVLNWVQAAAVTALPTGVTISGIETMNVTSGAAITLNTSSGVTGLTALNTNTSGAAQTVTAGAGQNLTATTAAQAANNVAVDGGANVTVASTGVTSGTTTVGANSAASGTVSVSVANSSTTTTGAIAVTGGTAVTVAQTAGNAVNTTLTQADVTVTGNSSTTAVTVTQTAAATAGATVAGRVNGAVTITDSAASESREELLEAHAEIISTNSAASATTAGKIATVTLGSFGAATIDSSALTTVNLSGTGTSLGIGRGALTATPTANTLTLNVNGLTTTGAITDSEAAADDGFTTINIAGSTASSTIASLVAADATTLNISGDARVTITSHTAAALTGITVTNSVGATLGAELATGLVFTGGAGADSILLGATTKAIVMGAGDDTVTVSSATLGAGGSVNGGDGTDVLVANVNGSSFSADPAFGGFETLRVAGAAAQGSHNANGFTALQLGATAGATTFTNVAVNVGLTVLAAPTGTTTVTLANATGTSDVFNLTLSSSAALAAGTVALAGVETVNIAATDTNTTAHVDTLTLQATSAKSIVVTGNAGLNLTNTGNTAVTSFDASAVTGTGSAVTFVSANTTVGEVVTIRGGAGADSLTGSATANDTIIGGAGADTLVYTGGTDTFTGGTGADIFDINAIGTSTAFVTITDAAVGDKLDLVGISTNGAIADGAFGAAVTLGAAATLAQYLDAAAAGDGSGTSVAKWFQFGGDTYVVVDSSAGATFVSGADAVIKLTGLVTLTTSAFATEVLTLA

[2] = molecular target: RsaA(723/3XPilin12), RsaA with a 3X tandemly repeated P. aeruginosa pilin epitope inserted at amino acid 723
[3] = molecular target: RsaA(723/VP2C), RsaA with a 112 amino acid segment of the VP2 surface glycoprotein of infectious pancreatic necrosis virus inserted at amino acid 723
[4] = molecular target: T2, RsaA, wild-type S-layer protein monomer of C. crescentus
T2 chain: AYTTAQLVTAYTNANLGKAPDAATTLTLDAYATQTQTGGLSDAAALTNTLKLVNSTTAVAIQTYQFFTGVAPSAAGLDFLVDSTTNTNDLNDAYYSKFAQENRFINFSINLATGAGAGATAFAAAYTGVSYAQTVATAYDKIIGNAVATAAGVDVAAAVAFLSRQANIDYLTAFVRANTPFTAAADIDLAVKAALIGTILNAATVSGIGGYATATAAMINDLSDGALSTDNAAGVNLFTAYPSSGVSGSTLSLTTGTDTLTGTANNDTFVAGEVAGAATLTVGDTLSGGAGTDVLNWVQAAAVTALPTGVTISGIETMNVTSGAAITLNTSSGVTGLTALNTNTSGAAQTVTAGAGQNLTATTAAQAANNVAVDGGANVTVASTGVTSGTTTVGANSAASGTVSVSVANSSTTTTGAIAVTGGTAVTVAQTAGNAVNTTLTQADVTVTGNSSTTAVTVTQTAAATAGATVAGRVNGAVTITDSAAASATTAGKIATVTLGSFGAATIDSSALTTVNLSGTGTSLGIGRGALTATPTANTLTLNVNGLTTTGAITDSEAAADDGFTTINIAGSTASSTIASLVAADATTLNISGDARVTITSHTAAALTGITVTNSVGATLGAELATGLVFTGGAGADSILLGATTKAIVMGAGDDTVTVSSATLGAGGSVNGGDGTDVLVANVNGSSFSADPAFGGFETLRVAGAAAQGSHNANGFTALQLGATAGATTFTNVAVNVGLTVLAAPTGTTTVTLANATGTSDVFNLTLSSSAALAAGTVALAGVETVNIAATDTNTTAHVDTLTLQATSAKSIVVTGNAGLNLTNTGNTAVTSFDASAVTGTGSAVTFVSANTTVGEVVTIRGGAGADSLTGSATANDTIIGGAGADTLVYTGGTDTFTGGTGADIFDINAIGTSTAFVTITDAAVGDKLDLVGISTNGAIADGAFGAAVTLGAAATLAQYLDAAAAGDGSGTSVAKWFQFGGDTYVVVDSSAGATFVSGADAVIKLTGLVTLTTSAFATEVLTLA

B1: Sap (S-layer associated protease), native Caulobacter crescentus metalloprotease (protein)
chain: MCSQCERYGLNLHGDDVAPAVSGGEGPYAFVDADSRVGTVDGKKSLTVPEAALQLLRSEPGWSNQFLVPATVTYAFRATAPASMPSDTGGFSQFNAAQILQAEKALQAWSDVANITFVRVGQGTSGEAAYSDNASILFANFSTGSEGSAGFAYYPGNPAASSRSGDVWIKSTAGYNTNPTGSNYGGMVLVHELGHAIGIAHPSEYNASADDTLTYAVNATYYQDSRQYTVMSYFSEANTGGSFGGAYASSPLLDDIAAAQLAYGANMTTRTGDTVYGFNSTAGREWFAATSSSTRLVFAVWDAGGVDTLDFSGYRVAQTIDLRAGYFSSVGGLKGNVTIAMNAVIENAIGGSAADTINGNAVDNRLTGGAGADILDGGRGVDTAVFSGAYGNYTLTAATNGAWSVLDRVGTDATDTLANIEFLAFTDRTVTLVDSRVATAISNILRLQTFSASAEPLSKSLAASMAAGASHSDAIGQVSKTALSTSGVAVLAYQFFTGKTPTAAGMDYLVNPDGVNANNLNSAYYQSFNLENRYINFAVNLGKIGEGATKFLADYGGLSLFDATRKAYATIFGLTPTDDKVRALIDGRTDYFAAYGQDGPNGQGTKAAMVGWLMAEAGKADIGVYAKSAGAFFADQATKNVYGVDLIGVYAKPEYNLI
proteolytic phenotype (cleavage of the hybrid protein; SDS-PAGE of low-pH extracts, complementation of Sap- JS4015 with the sap gene) [1]: When pBBR1MCS:Kmsap was introduced into JS4015, the proteolytic phenotype was restored
degradation of the hybrid protein in Sap+ JS4000 against Sap- JS4015 (SDS-PAGE of low-pH extracts) [2]: In all instances significant degradation of the hybrid full-length rsaA protein occurred in a wild-type host (JS4000) while none was detected in the Sap^- JS4015 strain
degradation of the hybrid protein in Sap+ JS4000 against Sap- JS4015 (SDS-PAGE of low-pH extracts) [3]: In all instances significant degradation of the hybrid full-length rsaA protein occurred in a wild-type host (JS4000) while none was detected in the Sap^- JS4015 strain
proteolytic cleavage (SDS-PAGE of low-pH extracts from Sap+ JS4000) [4]: Native RsaA (98 kDa) was not subjected to cleavage
